Among the data in publication PMC11211449 are stoichiometry N values, retold here.

The assay addresses recombinant prefusion RV3 F antigen (human respirovirus 3 fusion glycoprotein, prefusion conformation) (human respirovirus 3 (RV3)). Description: cryo-EM structure.

The stoichiometry N is the number of molecules, sites or subunits per partner or assembly. In the case of “recombinant prefusion RV3 F antigen (human respirovirus 3 fusion glycoprotein, prefusion conformation) (natural protein)”, the stoichiometry N was determined as 3.
